In the DeepSol protein solubility set:

Test: soluble on expression in E. coli; label from the status in PepcDB or PDB records

With “MGKKKNSNKSAAAAPAVKHNDRWSSIELGEAKSAAVSHYKEPSKEPKFVHPAKLEKVKRIHDGLNIDRVLSHGPVPKQNGGTKRKHVEVTTQKLENKKPKVEVKKEDEKSKNKKMKNQNKHTALVQNETSTRSTYFVEEPDNENKVTLISNGREIAFKKTEVVESDDEQMIGLDSDEELEDEDETDIDEDEMMIDPKDIERYINFESVEDEEDMEDEEIEDEEFEDEEFEDEEEEADEQEEEEEDVSDEESVVSEMDADSDDEGFIAGKDREAHVISKDKFTRNAPAVDFDKFPFTDEDSVVTSSRAFGFMISPCDVQTFFDKFYQSNVLVVRRKQPTYFGNLFSTARLGELLEKNHLEYGRNINIAQYKNGVRTTLNGQGRAYPQIVKQHLHNMCSVQLVNPQTYDDRIWYLCEVIQEQFGCFVGANTYLTPAGSSGFAPHWDEIDAFLLQVEGRKYWRVWAPESAEEELPLESSDNFTEDDMKGREPVFEGWIEKGDMIYIPRGYIHQARTDSKVHSLHVTVSTGRQWSFANLMEKVVPEAIGVLTDTRHKLRRGLPTGLFDMGGVIDLDYSQEDHFVEKFKMVVDRHMSMLRNLVADQLLESSVDSLAKEFMKQALPPRLTEQEKKLSVLGSSTNLLGDDLVDFTARTKVRLIRRHTQRLLMESEDACFISHRINNSRLFEGRPEQIVEYPISGIDAYRVLSNSYPEWRTLYEIFSLRETKTKSRKENLAAIQLLFQIGVLLVKN” as the sequence, how does the “soluble on expression in E. coli” value read?
Its value is “not soluble”.

With “MGSDKIHHHHHHMAYLEVLRYLYHKRPMGKVKPGLERISMLLSKLGNPHLEYKTIHIGGTNGKGSVANMVSNILVSQGYRVGSYYSPHLSTFRERIRLNEEYISEEDVVKIYETMEPILNELDKEEIFSPSFFEVVTAMAFLYFAEKNVDIAVLEVGLGGRLDATNVVFPLCSTIVTVDRDHEKTLGYTIEQIAWEKSGIIKERVPLVTGERKREALKVMEDVARKKSSRMYVIDKDFSVKVKSLKLHENRFDYCGENTFEDLVLTMNGPHQIENAGVALKTLEATGLPLSEKAIREGLKNAKNLGRFEILEKNGKMYILDGAHNPHGAESLVRSLKLYFNGEPLSLVIGILDDKNREDILRKYTGIFERVIVTRVPSPRMKDMNSLVDMAKKFFKNVEVIEDPLEAIESTERATVVTGSLFLVGYVREFLTTGKINEEWKL” as the sequence, how does the “soluble on expression in E. coli” value read?
Its value is “soluble”.

For “MKEESRAKTGRKPKSDPADYKYSFRLNAGENMRFEKLVTESEAKDKTRFIKKAIFGGTIKVVKIDKATMDYYIRLTEFHRQFQTIGNNYNQVVRAIRSNFGEKRAMSLLYKLEKMTLELMLLTKKVIALTEEYQKKWLQK”, which “soluble on expression in E. coli” value is on record?
The value was “not soluble”.

With “MSLWRSTVARAPLDARERKNLVAHVQSAQAHESAQHAELAKLRASVNVMKAAEATPRNDEAGQDSAMIPMAGPGVRIILDDANAAPADELGDKDMRKLVNAVWQSGAEAVAINGHRIGPRTAIRSAGSAITVDYVSLSRPYVVEAIGSPQKLPAELADTPGGRWMTYLRDNSSITYQVTTKDRVSVPGSKASVSHARPHREGHHHHHH” as the sequence, how does the “soluble on expression in E. coli” value read?
Its value is “soluble”.

For “MAEKMQAIMKTKPAYGAELVEVDVPKPGPGEVLIKVLATSICGTDLHIYEWNEWAQSRIKPPQIMGHEVAGEVVEVGPGVEDLQVGDYISVETHIVCGKCYACKHNRYHVCQNTKIFGVDMDGVFAHYAIVPAKNAWKNPKDMPPEYAALQEPLGNAVDTVLAGPIAGRSTLITGAGPLGLLGIAVAKASGAYPVIVSEPSEFRRKLAKKVGADYVVNPFEEDPVKFVMDITDGAGVEVFLEFSGAPKALEQGLKAVTPGGRVSLLGLFPREVTIDFNNLIIFKALEVHGITGRHLWETWYTVSSLIQSGKLNLDPIITHKYKGFDKFEEAFELMRAGKTGKVVFFPHKG”, which “soluble on expression in E. coli” value is on record?
Its value is “soluble”.

Which “soluble on expression in E. coli” value does the source give for “MSLKRADLSIVPLTFKHPIVTAHAVLSVRRTLILRLETVDGVVGYGEGAAFETPWYTEETTQSMIDTSKLILNLLKGMTVTTDVFPNLVSSIIGQRMAKAMWESALWEIEATRANKSLKSFISAGDSVSCGRTIGIGLLNQTMKSIETALADGFERIKLKASPNELLPALREIRAVFPDAPLMIDLNGSASDQPMEWFEQLDTYRLLMIEQPYPSRQFTKSAALQAKLTTPICLDESITSYDDVETMAQLGAGKIVNIKPARVGGLSEAFHIRKHGTPYWVGGMYESGIGRYHTLLFASLSGASFPADMSGTSAYFEQDLLDIPLEVENGKLTLPDSVQPDWNVIERLREEVITLQTEGHHHHHH” here?
Its value is “soluble”.

For “MGSDKIHHHHHHMYGIVIVEDEELERQALRTILTENIDGIRILGEARTGTEAVALIDSCEIDLMLVDINIPNLNGLEVIRHLRDRHADTKVIITTAYDYFETTRTAIQLKVDEYLLKPIRTQALVTTIQSCIGQLGAGRQCRELVGRIADLVEQDGYQEGVTLVRRHIEWICTQRGHVPRDLILDFAGALVALARDKGLRLPDALTQQIGQLRTMPLDAQTGYQALGTFLGVVDLLFDVTGERFGYSSNTVKKVLNYIERNLTKRITLEDAAEYANISPSYLSRMFKKTLNVNFISYLTTRRIELAKETLIGTERPITAISQELSYSDVNYFCKSFKKEVGVSPTEYRRQSRLAQGAPPPREAALATG”, which “soluble on expression in E. coli” value is on record?
The value was “not soluble”.

Which “soluble on expression in E. coli” value does the source give for “MAHHHHHHMSGILTNLNIESGYFNEDIKEESNESNFMYANISMLIRAYKKDRNKLILLNKKLNLIKIVGLVLNIEEKKEFIIYTIDDTTGCIKAKLLLTYSLNSYNEKKDNIKINDLIQIFGICNTVSLNEDLTISISSINKLDSFNYLCHHHLLVFHDYLKYQEEERRNPIEDKSRNDEDDLESTQNNENAYFNTFFY” here?
Its value is “not soluble”.

For “MSLDSSRIKVVFWHEMKGPGQQAIDAYVKAFNHQQSKYEVVAEFEGGYNGVIQKILNTHGTAASPALFQSMDISTSQMYHSGFTTPMQKFIDRDHYDADQIIPGAKAIVMRDNQLLAMPFNASQTALYYNKRVLRQYGITPPPVDPTYDDITRVAKAIHDKSHGKVKGMTMEAYSWLFEQLVANAGVPVANHDNGHTGNATKVDFTSPAAINAMKWVKENIDYGDFMNFGSGGNAAANEAASFLAGHLGIFMQSSANTGQLYQVLKNDLGVTYFPRPNGQRANGIAVGGAALWIANDKPSAVQDGAWEFTKFLASAQTQADWQAKTGYLAVNKGAKDEPTLKKLFKKSPVLEVSGNQMLRTKPNNTNSGVFVDGWVPARTAIQTAMQQIFAGQDIRQSLQTAENTYNKVLESNNRANGREGHHHHHH”, which “soluble on expression in E. coli” value is on record?
The value was “soluble”.

For “MSESAFSNRIVQSLLDTDFYKLTMMQAVLHNYPNVDVEWEFRCRNGEDLRPYLGEIQHQIELLCELSLSPEHLVFLERITFMKPDFLRFLGLFRFNTRYVKTSIENDELCIRLHGPWLHVILFEVPLLAIVSEVRNRHRYPDTLLSQARDRLYDKFEWLTVNATPDELAELKVADFGTRRRFSYRVQEEVLNVLKLDFPGQLVGTSNVHLARQLDLKPLGTMAHEWIMAHQQLGPRLIDSQIAALDCWVREYRGLLGIALTDCITTDAFLNDFDLYFAKLFDGLRHDSGDPVKWAEKCISHYQKLGIDPMSKTLVFSDGLNLPKALDIFRALRGRINVSFGIGTNLTADIPGIAPMNMVLKMTACAGQAVAKISDESGKTQCKDPNFVAYLRHVFKVPDLPSPAKPALEHHHHHH”, which “soluble on expression in E. coli” value is on record?
Its value is “not soluble”.

Which “soluble on expression in E. coli” value does the source give for “MPSMSPIDKSWSTCPYGFLDGTHQELRRIFHLWRCKKYRSQFTEEKKATYEEKLAASELFKDKKALYPSSVSQPFKGDYVEITKNPKYQKLNSLVEDKVLLADVVSKINRANGKGTPRIFLLTKKCLVLADQKTGQVKASVPLPDLSSVFVSTQNDGFFALKLREGATSAAKGDYLLSSDRLIEIITKLYCTGAASAERNQIKIDISDEFLVQFKQDKVCVKFIQGTPKNSNSVSCKRKNNRLLEVSVPSP” here?
Its value is “soluble”.

With “MSLKILVIGPSWVGDMVMSQSLYQRLKQQHPDAQIDVLAPAWCKPILERMPEVNQAIEMTIGHGAFNLLGRRAIGCELRDNRYTHAIVLPNSAKSALIPWFANIPKRTGWKGEFRYGLLNDLRPDKRVFQYMVERYVALAHPKATMLADVSLEHCPRPKLVIDAIVQQAARQRLSLVSSRPVIGLCPGAEFGPAKRWPDHYYAEVARYAIEQGFQVWLFGSAKDHSVTTQIQQALSEEQREYCANLAGETSLIEAVDLLAACHTVVSNDSGLMHVSAAVGCNIVAIYGSSSPKYTPPLTDKLAVVHTEIECRPCFKRVCPLEHLNCLNQLKPAQVIKALDKFIGKDSEGHHHHHH” as the sequence, how does the “soluble on expression in E. coli” value read?
The value was “soluble”.

Which “soluble on expression in E. coli” value does the source give for “MFRRIFDAFNFMGSDEESTAAPVDQEGQEQLIDEDGWVNFNHPTESGDSDEFAFIENPEILEMGDETTIEVEMRTTPCPEVEAIKRREEYNLAKAKTAFRNHLESVMFADPDSGKDVRTFKSTHGSGRSVPTASGSIRRLNTQSQRSKKSSGKSNDRKTHRVSDLQLADA” here?
Its value is “not soluble”.

For “MNEKNRQLPAFTPRNRRTHPISAERKQLGVDDIVDHCMIYVDGRAIQGWFDYGSGLKRVKDFIASGHKAFMWLSLEEPSEQHMMQVADDLHIHELIVEDAVTAHQRPKVERYDDQIFMVVRSVFYRDHETVDDANEIIKTGEVQMLIGEHFIITIRHRTPMPDLTMRLDDPQEISSYGPMIIAWAWADYLVDGYLRIVNILAEEVDELEEEVFTPGSSFNIEHIYMIKREILEMRHAIDPLAPALRMLVTQHKDMIAKQLRSYLRDVLDHEMVAKDYVANFDERLSSLIDAGVAKISLQQNSDMRAIS”, which “soluble on expression in E. coli” value is on record?
The value was “not soluble”.

With “AVFNYALMPSLQQFNKILAHELNLVLDEDGPLKSDAPLRRQLLERLGVTVHSINSEKAVEFNHAMSIDLMSEEMTQELGSPTEVRLLLGSESYILWMHIEKLPNSIIRIPLSELQEEDFAPLFR” as the sequence, how does the “soluble on expression in E. coli” value read?
The value was “not soluble”.

With “MAESFTTTNRYFDNKHYPRGFSRHGDFTIKEAQLLERHGYAFNELDLGKREPVTEEEKLFVAVCRGEREPVTEAERVWSKYMTRIKRPKRFHTLSGGKPQVEGAEDYTDSDD” as the sequence, how does the “soluble on expression in E. coli” value read?
The value was “soluble”.

For “MTTFRQHRWQSFLQGYEQRARILISCPDRPGIVAAVTSFLYEQGANIVESSQYSTDPEGGTFFLRLEFDCPNIAERKEEIEAAFAPIAAEFEMRWQLRLHNDIRRIAIFVSKAEHCLLELLWQWQAGELIADIALVISNHPDLRETVESFGIPYVHIPVTKETKADAEAEQIRLLRDYQIDTIVLARYMQILSPAFVAEFSGRIINIHHSFLPAFIGARPYERAYERGVKLIGATSHYVTDDLDEGPIIEQDVARVDHRHHPDDLKRIGRLIEKTVLARALRWHLEDRVIIHGNKTIVFY”, which “soluble on expression in E. coli” value is on record?
Its value is “soluble”.

For “MNFAQVKDYLVDLQNRIVTGLEQVDGQSFRRDTWDRPEGGGGTSCVIEEGNVLERGGVNFSHVFGKGLPASATAARPELAGRAFEAAGVSLVLHPRNPYAPTVHMNVRFFAATKEGAEPVWWFGGGMDLTPYYGFEEDAVHFHQACKDALQPSGEEYYPRFKKWCDEYFYLKHRKEPRGIGGVFFDDLNQPDFATCFNLTRSVGDHFLAAYVPILQKRRDLPYGERERDFQAYRRGRYVEFNLVWDRGTLFGLQSGGRTESILMSLPPVVKWRYDWSPAAGSPEAKLYTDFLTGRDWLPLGLEHHHHHH”, which “soluble on expression in E. coli” value is on record?
The value was “soluble”.

With “MGSDKIHHHHHHMLYLIGLGLSYKSDITVRGLEAIKKCSRVYLEHYTSILMAASQEELESYYGKEIILADRELVETGSKQILNNADKEDVAFLVVGDPFGATTHTDLVLRAKREAIPVEIIHNASVMNAVGACGLQLYNFGQTVSMVFFTDNWRPDSWYDKIWENRKIGLHTLVLLDIKVKEQSIENMARGRLIYEPPRYMSIAQCCEQLLEIEEKRGTKAYTPDTPAVAISRLGSSSQSFKSGTISELANYDSGEPLHSLVILGRQCHELELEYLLEFADDKEKFGKDVANDQEYFKPAAWVPPTEDDSDE” as the sequence, how does the “soluble on expression in E. coli” value read?
The value was “not soluble”.
